Measured values published in patent publication US20170122964.

System: nucleosome on the remodeling DNA template with Atto 647N labeled histone H2B

ACF remodeling complex
FRET signal (nucleosome sliding assay): Nucleosome on the remodeling DNA template shows FRET signal, which is reduced over time by the remodeling complex.
